{
  "source": "paper PMC9520032",
  "biological_target": "Vibrio cholerae cytolysin E289A mutant, mature form (Vibrio cholerae)",
  "experiment": "cryo-EM structure",
  "data": [
    {"substance": "Vibrio cholerae cytolysin E289A mutant, mature form (natural protein)", "values": [
      {"measurement": "stoichiometry N", "result": 7}
    ]}
  ]
}
